Experiments:
NASH-related proteases = assay: Probe cleavage in mouse plasma, NASH vs healthy (RFU per minute); format: biochemical; settings: for disease contrast (NASH vs healthy): mouse plasma; for ability to distinguish (differentiate) between NASH and healthy samples: activity as RFU per minute in 1% mouse plasma, NASH (CDAHFD) vs healthy (CD)
Method: All animals were used in accordance with animal care guidelines. Plasma was obtained from these blood samples by centrifugation at 3,500 RPM for 20 min at 4° C. The plasma was stored at −80° C. until it was needed for experimental purposes.
Samples were mixed with protease substrates and quenchers/reporters in 96-well plates. The 96-well plates were read on a Biotech Synergy H1, using 465,535 excitation/emission settings.
The probes of the present application were able to measure the activity of NASH-related proteases as expressed in Relative Fluorescent Unit (RFU) per minute in the two mouse populations. Probes measuring cathepsin activity were 3-fold higher in protease cleavage kinetics in mice with NASH compared to healthy mice.
Using the method of the above example, PEGylated probes were used to measure the activity of NASH-related proteases, as expressed in RFU per minute in 1% mouse plasma samples.

DPP4 = DPP4 (Homo sapiens, UniProt P27487); assay: Recombinant protease panel, probe cleavage: dpp4; format: biochemical; settings: expressed in RFU per minute
Sequence of DPP4 (P27487 whole entry, species assumed): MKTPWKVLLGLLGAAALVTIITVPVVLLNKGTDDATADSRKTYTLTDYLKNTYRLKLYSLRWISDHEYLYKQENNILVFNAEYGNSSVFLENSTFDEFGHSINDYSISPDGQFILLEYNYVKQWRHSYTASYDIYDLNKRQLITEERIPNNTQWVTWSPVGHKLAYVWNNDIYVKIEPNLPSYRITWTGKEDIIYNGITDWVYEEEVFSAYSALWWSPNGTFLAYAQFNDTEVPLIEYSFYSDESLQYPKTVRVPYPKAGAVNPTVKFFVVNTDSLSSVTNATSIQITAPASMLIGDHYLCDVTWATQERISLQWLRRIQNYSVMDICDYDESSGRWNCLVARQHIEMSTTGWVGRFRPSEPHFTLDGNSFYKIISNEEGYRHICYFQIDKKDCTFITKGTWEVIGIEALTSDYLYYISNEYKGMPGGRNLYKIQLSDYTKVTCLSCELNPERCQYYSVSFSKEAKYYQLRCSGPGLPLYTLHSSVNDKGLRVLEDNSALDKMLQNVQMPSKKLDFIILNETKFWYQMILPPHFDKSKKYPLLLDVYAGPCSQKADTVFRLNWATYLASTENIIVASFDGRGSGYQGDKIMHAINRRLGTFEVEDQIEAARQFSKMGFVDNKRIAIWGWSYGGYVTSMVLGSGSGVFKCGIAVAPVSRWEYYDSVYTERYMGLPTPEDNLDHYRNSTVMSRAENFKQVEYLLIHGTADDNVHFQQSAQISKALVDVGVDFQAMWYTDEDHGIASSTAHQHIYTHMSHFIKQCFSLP
Method: Substrate plates were thawed and spun down for 5 minutes to ensure the substrates were at the bottom of the wells. Proteases for each substrate plate were prepared by adding 1 protease per plate. Proteases were then diluted to 15 nM in 2 mL of specified protease buffer (see Table 5). Assay buffer was added to control wells while […] active enzyme in assay buffer was added to each sample well. Plates were spun down and then read immediately after centrifugation.

[1] = tested on: Probe #762, K(Acc)(Pro-4-Obzl)G(PEG8)K(Dnp)k
[2] = tested on: Probe #766, K(Acc)(Hyp)G(PEG8)K(Dnp)k
[3] = tested on: most other probes (FIG. 16)
[4] = tested on: Probe #768, K(Acc)(Sar)G(PEG8)K(Dnp)k

Substance: AK(Acc)G-PEG8-K(Dnp)-k [Probe #680]
- disease contrast (NASH vs healthy) (NASH-related proteases): Lys-Ala motif of Probe #678 (FIG. 13A) displays stronger disease contrast than the Ala-Lys motif of Probe #680

Substance: K(Acc)AG-PEG8-K(Dnp)-k [Probe #678]
- DPPIV (DPP4) protease activity on the probe (cleavage) (DPP4): needed for measuring DPPIV activity
- ability to distinguish (differentiate) between NASH and healthy samples (NASH-related proteases): ability to distinguish between NASH and healthy samples
- ability to distinguish (differentiate) between NASH and healthy samples (NASH-related proteases; listed as probe 678): able to differentiate between NASH and healthy samples
- disease contrast (NASH vs healthy) (NASH-related proteases): stronger disease contrast than the Ala-Lys motif of Probe #680

Substance: aminopeptidase n/CD13
- hydrolysis of fluorogenic probe by protease [1]: evade hydrolysis from Aminopeptidase N
- hydrolysis of fluorogenic probe by protease [2]: evade hydrolysis from Aminopeptidase N
- hydrolysis of fluorogenic probe by protease [3]: most other probes are susceptible to cleavage
- hydrolysis of fluorogenic probe by protease [4]: evade hydrolysis from Aminopeptidase N

Substance: dipeptidyl-peptidase 4 (DPP4 or DPPIV)
- cleavage of fluorogenic probe by protease panel [2]: selective for dipeptidyl peptidases with strong preferences for DPP4
- cleavage of fluorogenic substrate (fluorescence over time) (a substrate (FIG. 19C)): a substrate is rapidly cleaved by DPP4 (square markers) but remains intact in buffer alone with no protease present
- cleavage of fluorogenic probe by protease panel [4]: selective for dipeptidyl peptidases with strong preferences for DPP4

Substance: dpp2/7
- cleavage of fluorogenic probe by protease panel [1]: Probe #762 is selective for DPP2
